Results as given in patent US12472227B2, “Pharmaceutical compositions and use thereof for relieving resistance due to cancer chemotherapy and enhancing effect of cancer chemotherapy” (Rise Biopharmaceuticals Inc., priority 2015, dated 2025).
Entries after “also recorded” stand apart in the source; their conditions may differ. Where two headings read alike, the source gives them in different places.

What was measured:
BxPC-3 cells = experiment: MTT cytotoxicity of Gemcitabine, parental BxPC-3; assay type: cell-based; conditions: Homo sapiens, BxPC-3 parental cells
Protocol: (§1) Human pancreatic cancer (PDAC) cell lines, BxPC3 and MIAPaCa2 were used in the present invention. Gemcitabine resistant BxPC3 cell line (BxPC3GR) was generated as a chemoresistant cell line against gemcitabine by culturing BxPC3 cells in media containing increasing concentrations of gemcitabine and then maintained them at 0.5 μM gemcitabine. Gemcitabine resistant MIAPaCa2 cell line (MIAPaCa2GR) was generated by culturing MIAPaCa2 cells in media containing increasing concentrations of gemcitabine and then maintained them at 0.12 μM gemcitabine. […] MIAPaCa2 and MIAPaCa2GR are maintained in DMEM with 10% FBS, 1% penicillin-streptomycin, and 1% L-Glutamine.
(§2) To validate the establishment of Gemcitabine-resistant pancreatic ductal adenocarcinoma (PDAC) cell lines, MTT of Gemcitabine gradient was implemented with parental cells and Gemcitabine-resistant (GR) cells.
(§3) BxPC-3 and BxPC-3GR treated with gemcitabine from 0 nM to 100 nM, and measured by MTT (FIG. 3a). Similarly, MIAPaCa2 and MIAPaCa2GR also treated with gemcitabine from 0 nM to 100 nM, and measured by MTT (FIG. 3b).

MIAPaCa2GR cells = experiment: MTT cytotoxicity of Gemcitabine, Gemcitabine-resistant MIAPaCa2GR; assay type: cell-based; conditions: Homo sapiens
Protocol: as §1
To validate the establishment of Gemcitabine-resistant pancreatic ductal adenocarcinoma (PDAC) cell lines, MTT of Gemcitabine gradient was implemented with parental cells and Gemcitabine-resistant (GR) cells. […]

BxPC-3GR cells = experiment: MTT cytotoxicity of Gemcitabine, Gemcitabine-resistant BxPC-3GR; assay type: cell-based; conditions: Homo sapiens
Protocol: as §1, §2, §3

MIAPaCa2 cells = experiment: MTT cytotoxicity of Gemcitabine, parental MIAPaCa2; assay type: cell-based; conditions: Homo sapiens, MIA PaCa-2
Protocol: as §1, §2, §3

BxPC-3GR [1] = experiment: Cell proliferation assay (CCK-8), BxPC-3GR; assay type: cell-based, Human; conditions: Gemcitabine 100 nM, ONCO P-8 400 ng/mL (47 nM), IL-8 200 ng/mL, 24 hours
Protocol: The Gemcitabine-resistant cancer cells treated by Gemcitabine (100 nM) with ONCO P-8 (400 ng/mL, 47 nM), or treated by Gemcitabine with ONCO P-8 and IL-8 (200 ng/mL, 23.8 nM) for 24 hours.

[2] = test system: gemcitabine-resistant cell (BxPC-3GR); experiment: Migration of Gemcitabine-resistant cancer cells; assay type: cell-based, Human; conditions: ONCO P-8 400 ng/ml, IL-8 200 ng/ml
Protocol: (§4) The drug concentration: ONCO P-8 (400 ng/ml), Reparixin (200 nM), IL-8 (200 ng/ml), statistical significance: *P<0.05, **P<0.01,***P<0.001.

BxPC-3GR [3] = experiment: Transwell invasion assay, BxPC-3GR; assay type: cell-based, Human; conditions: Gemcitabine 100 nM; for invasion rate: ONCO P-8 400 ng/mL or IL-8 200 ng/mL, versus control
Protocol: (§5) The invasion ability of cell was performed by using 8 μm pore size transwell (Corning Fluor® Blok™). The transwell insert was coated with 60 μl matrigel (300 μg/ml in serum-free medium, BD Bioscience) overnight at 37° C. in 5% CO2 atmosphere. 2.5×10^4 cells in 0.2 mL of serum-free growth medium were seeded into the upper chamber coated with matrigel and then treated with IL-8 (200 ng/ml) with/without ONCO P-8 (400 ng/ml). After incubation for 24 hrs at 37° C. in 5% CO2, membrane of upper chamber was fixed with methanol and stained with propidium iodide (PI). The invasive cells in the bottom of membrane were imaged and counted by using an inverted fluorescence microscope (Observer.Z1, Zeiss) in five random fields of each specimen (magnification, ×100).
(§6) The Gemcitabine-resistant cancer cells treated by Gemcitabine (100 nM) with ONCO P-8 (400 ng/mL), or treated by Gemcitabine with ONCO P-8 and IL-8 (200 ng/mL), or treated by Gemcitabine with IL-8 respectively for invasion ability assay.
as §4

BxPC-3 cell line = experiment: Transwell matrigel invasion assay, BxPC-3; assay type: cell-based, Human; conditions: 24 hrs; for invasive rate: ONCO P-8 400 ng/ml or IL-8 200 ng/ml alone
Protocol: as §5

CXCR1 = biological target: T1, CXCR1 (Homo sapiens, UniProt P25024); experiment: Indirect ELISA binding assay, CXCR1 complex formation; conditions: versus IL-8
T1 sequence (P25024 1-350): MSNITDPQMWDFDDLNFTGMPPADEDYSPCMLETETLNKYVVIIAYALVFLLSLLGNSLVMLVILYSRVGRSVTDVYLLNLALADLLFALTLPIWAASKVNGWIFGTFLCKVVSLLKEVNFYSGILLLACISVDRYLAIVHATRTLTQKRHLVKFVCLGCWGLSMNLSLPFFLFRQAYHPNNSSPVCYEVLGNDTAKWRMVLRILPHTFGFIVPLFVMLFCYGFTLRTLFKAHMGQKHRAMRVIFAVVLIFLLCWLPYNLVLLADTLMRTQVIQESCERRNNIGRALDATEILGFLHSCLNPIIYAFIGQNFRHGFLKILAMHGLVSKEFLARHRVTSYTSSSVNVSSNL
From the text: (§7) The Kd Equation include: (1) i=A450nm/A^max450 nm, then i=Ligand/Ligand^max; (2) 1/(1−i)=(Ligtot/i)/Kd−b, b=fqSrec/Kd.

BxPC-3 = experiment: Colony formation assay, BxPC-3; assay type: cell-based, Human; conditions: IL-8 200 ng/ml, ONCO P-8 400 ng/ml, 2 weeks
Protocol: Cells were Seeded in a 24-Well Plate at a Density of 1000 Cells Per well, treatment were executed 24 hr after seeding. The treatment included that the cells were treated with IL-8 (200 ng/ml), IL-8 (200 ng/ml) plus ONCO P-8 (400 ng/ml), or ONCO P-8 (400 ng/ml). After 2 weeks, the medium was removed and cells were washed with PBS and stained for 30 min in 0.1% w/v crystal violet (dissolved in methanol; 32675, Fluka® Analytical, USA). Area of colonies were identified by camera and analyzed by ImageJ analysis software. The results were calculated as follows: Colony formation rate (%)=(Treatment area of the colony/Control area of the colony)×100%

MIAPaCa2GR = experiment: Transwell invasion assay, MIAPaCa2GR; assay type: cell-based, Human; conditions: Gemcitabine 100 nM
Protocol: as §5, §6

[4] = test system: CSC markers (NANOG, OCT4, SOX2, ALDHA1, BMI-1, KLF4, Nestin) in BxPC3GR-derived spheroids; experiment: RT-PCR of CSC markers in BxPC3GR-derived spheroids; assay type: cell-based, Human; conditions: ONCO P-8 400 ng/ml (47 nM), Gemcitabine 100 nM
Protocol: FIG. 12A-12G illustrate RT-PCR analysis was performed to determine the effect of ONCO P-8 treatment on the expression levels of NANOG (FIG. 12A), OCT4 (FIG. 12B), SOX2 (FIG. 12C), ALDHA1 (FIG. 12D), BMI-1 (FIG. 12E), KLF4 (FIG. 12F) and Nestin (FIG. 12G) in BxPC3GR-derived spheroids with Gemcitabine. Drug resistance related CSC marker: NANOG, OCT4, SOX2. Cell invasion related CSC marker: ALDHA1, BMI-1. Tumor growth related CSC marker: KLF4, Nestin.
All real-time PCR reactions were performed with specific primers and taqman probes or probes from the Universal Probe Library (Roche Applied Science) in the StepOneTMReal-Time PCR system (Applied Biosystems™). 18 s was used as an internal loading control. The reactions were performed as follows: denaturation for 2 min at 50° C. and 10 min at 95° C., 50 cycles of 95° C. for 15 sec, and 60° C. for 1 min. […] Sequences of all primers used are listed below (F: Forward primer; R: Reverse primer): […]

CXCR2 = biological target: T2, CXCR2 (Homo sapiens, UniProt P25025); experiment: Indirect ELISA binding assay, CXCR2 complex formation; conditions: versus IL-8
T2 sequence (P25025 1-360): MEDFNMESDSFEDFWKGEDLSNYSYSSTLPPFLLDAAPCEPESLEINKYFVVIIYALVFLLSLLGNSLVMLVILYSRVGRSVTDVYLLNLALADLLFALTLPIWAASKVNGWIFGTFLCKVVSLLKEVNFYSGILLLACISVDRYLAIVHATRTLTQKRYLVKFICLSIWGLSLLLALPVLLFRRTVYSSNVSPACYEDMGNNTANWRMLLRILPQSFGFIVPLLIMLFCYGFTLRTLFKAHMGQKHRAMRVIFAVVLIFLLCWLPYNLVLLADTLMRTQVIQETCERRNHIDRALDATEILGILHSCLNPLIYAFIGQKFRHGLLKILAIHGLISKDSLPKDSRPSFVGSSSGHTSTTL
From the text: as §7

BxPC-3 xenograft tumor = assay type: in vivo, BALB/c nude mice
Protocol: The PDAC xenograft tumor model treated by ONCO P-8, or treated by Gemcitabine with ONCO P-8, or treated by Gemcitabine, or treated by Gemcitabine, or treated PBS respectively. Gemcitabine administrations were about 100 mg/kg subject weight twice per week. ONCO P-8 administrations were about 500 μg/kg subject weight three times per week. […] The survival rate of xenograft model treated by ONCO P-8 or treated by Gemcitabine with ONCO P-8 is about 100%.
To evaluate the effect of ONCO P-8 in vivo, it was used the BxPC-3 model in 4-week old male BALB/c nude mice in the present invention. Mice were inoculated BxPC-3 cells subcutaneously. After 7 days, mice were treated with PBS or ONCO P-8 (500 μg/kg) by i.p injection three times a week. The initiation tumor size was 128.5±47.8 mm^3 in first treatment.

[5] = IL-8 200 ng/mL + ONCO P-8 400 ng/mL versus IL-8 group

`Nc1ccn([C@@H]2O[C@H](CO)[C@@H](O)C2(F)F)c(=O)n1` [Gemcitabine] showed an IC50 (BxPC-3 cells) of 6.13 nM, an IC50 (MIAPaCa2GR cells) of 8620 nM and an IC50 (BxPC-3GR cells; BxPC-3GR cells, read-out: IC50-value in BxPC-3GR cells) of 236 nM. For the same molecule, the IC50 (BxPC-3GR cells; BxPC-3GR resistant cells, read-out: IC50 (nM) Resistant cells) was 236 nM, the IC50 (MIAPaCa2 cells) was 251 nM and the proliferation rate (BxPC-3GR [1]) was “enhanced”.

For “IL-8: ELR-CXC chemokine CXCL8 (IL-8), ligand of CXCR1 and CXCR2 [reference compound]”, the migration rate [2] was “can enhance the cell migration”, the invasion rate (BxPC-3GR [3]) was “can enhance” and the invasive rate (BxPC-3 cell line) was “can enhance the cell invasion”.

B1: ONCO P-8: chemokine receptor antagonistic modified peptide (SEQ ID NO: 1), analogous protein of CXCL8 (IL-8), antagonist of CXCR1 and CXCR2 (protein)
chain: GSKELRCQCIRSYSKPFHPKFIKELRVIPASQFCANTEIIVKLSDGRELCLDPKENWVQRVVEKFLKRAENS
modifications: ONCO P-8
In the case of B1, the migration rate [2] is reported as “can reduce the migration rate; also recorded: can attenuate”, the “bind to CXCR1 tighter than IL-8” value (CXCR1) is reported as 3-4 fold and the colony formation rate (BxPC-3) is reported as “can neutralize the effect of CXCL8 to reduce the colony formation rate”. For the same molecule, the “invasion rate in presence of IL-8” value (MIAPaCa2GR; [5]) was “can prevent significantly invasion rate”, the invasion rate (MIAPaCa2GR; ONCO P-8 400 ng/mL, versus control) was “decreases invasion rate; also recorded: can inhibit the invasion ability” and the “invasion rate in presence of IL-8” value (BxPC-3GR [3]; [5]) was “can prevent significantly invasion rate; also recorded: can neutralize the effect of CXCL8 to reduce the invasive rate”. The invasion rate (BxPC-3GR [3]) was “decreases invasion rate; also recorded: can reduce; also recorded: can inhibit the invasion ability; also recorded: can attenuate”, the “expression of CSC properties markers” value [4] was “can reduce the expression of these CSC properties markers” and the “bind to CXCR2 tighter than IL-8” value (CXCR2) was 3-4 fold. For the same molecule, the “survival rate / lifespan” value (BxPC-3 xenograft tumor; BxPC-3 xenograft) was “improve the survival rate”, the survival rate (BxPC-3 xenograft tumor; BxPC-3 xenograft, FIG. 13C) was “about 100%” and the “tumor growth (tumor size)” value (BxPC-3 xenograft tumor; BxPC-3 xenograft, ONCO P-8 500 μg/kg i.p. three times a week, Gemcitabine 100 mg/kg twice per week) was “significantly inhibited the tumor growth”. For the same molecule, the “body weight of mice” value (BxPC-3 xenograft tumor; mouse, in vivo, ip) was “didn't lead to reduce the body weight”, the proliferation rate (BxPC-3GR [1]) was “significantly attenuated; also recorded: inhibited” and the “invasive rate in presence of CXCL8” value (BxPC-3 cell line; IL-8 200 ng/ml with ONCO P-8 400 ng/ml) was “can neutralize the effect of CXCL8 to reduce the invasive rate”. For the same molecule, the invasive rate (BxPC-3 cell line) was “can reduce the invasive rate”.
